Source: paper PMC13108567, “Targeting PD-1^+ T cells with chimeric antigen receptors to reduce the HIV reservoir” (Science Advances, 2026)

Target: T1, PD-1 biotinylated dimer (Homo sapiens, UniProt Q15116)
T1 construct: also called PD-1 dimer protein
Experiment: BLI
Conditions: both partners purified

T1 sequence (Q15116 25-288): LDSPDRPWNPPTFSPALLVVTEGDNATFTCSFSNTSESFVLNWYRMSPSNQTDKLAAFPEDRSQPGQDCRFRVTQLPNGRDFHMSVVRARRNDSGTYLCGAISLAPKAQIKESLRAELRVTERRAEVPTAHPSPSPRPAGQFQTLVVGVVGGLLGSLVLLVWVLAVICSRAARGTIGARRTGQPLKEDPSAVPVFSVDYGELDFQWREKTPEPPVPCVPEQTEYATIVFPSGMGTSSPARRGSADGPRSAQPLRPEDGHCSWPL

B1: scFv-His of anti-PD-1 clone 135c139d6 (scFv, V domains shown)
VH: EVQLVQSGAEVKKPGESLKISCKGSGYSFTNFYIHWVRQAPGQRLEWMGSIYPNYGDTAYNQKFKDRFVFSLDTSVSTAYLQISSLKAEDTAVYYCARGYSYAMDYWGQGTTVTVSS
VL: DIQMTQSPSSVSASVGDRVTITCSASQGISGDLNWYQQKPGKAPKLLIYHTSSLHSGVPSRFSGSGSGTDFTLTISSLQPEDFATYYCQYYSKDLLTFGGGTKLEIK
notes: source: purified
In the case of B1, the “KD, fold lower than that of the scFv of clone A35” value is reported as 4 times.
